Source: patent US20250186597A1, “TARGETED IMMUNE ACTIVATION WITH IL-18 IMMUNOCYTOKINES” (BRIGHT PEAK THERAPEUTICS AG, priority 2023, published 2025)

Columns and labels:
Assay in all cases: cell-based or functional assay
[1] = molecular target: IL-18 polypeptide of SEQ ID NO: 36 (K53A) (human) (UniProt Q14116)
[2] = molecular target: IL-18 polypeptide of SEQ ID NO: 39 (E06K, K53A) (human) (UniProt Q14116)
[3] = molecular target: IL-18 polypeptide C144 (V11I, C38A, K53A, T63A, C76A, C127A) (human) (UniProt Q14116)
[4] = molecular target: IL-18 polypeptide of SEQ ID NO: 5 (E6K, V11I, C38A, K53A, T63A, C68A, C76A, M86C, C127A) (human) (UniProt Q14116)
[5] = molecular target: IL-18 polypeptide C161 (K8R, V11I, C38A, C76A, Q103E, C127A) (human) (UniProt Q14116)
[6] = molecular target: IL-18 polypeptide of SEQ ID NO: 62 (E6K, C38A, K53A, C127A) (human) (UniProt Q14116)
[7] = molecular target: native IL-18 wild-type (SEQ ID NO: 1) (human) (UniProt Q14116)
[8] = molecular target: IL-18 polypeptide C158 (V11I, C38A, K53A, C76A, G108A, C127A) (human) (UniProt Q14116)
[9] = molecular target: IL-18 polypeptide of SEQ ID NO: 4 (E6K, C38A, K53A, C68A, M86C) (human) (UniProt Q14116)
[10] = molecular target: IL-18 polypeptide of SEQ ID NO: 43 (E06K, K53A, S55A, Y01G) (human) (UniProt Q14116)
[11] = molecular target: IL-18 polypeptide C153 (V11I, D37A, C38A, K53A, C76A, C127A) (human) (UniProt Q14116)
[12] = molecular target: IL-18 polypeptide of SEQ ID NO: 52 (E06K, T63A) (human) (UniProt Q14116)
[13] = molecular target: IL-18 polypeptide C157 (V11I, C38A, K53A, C76A, C127A, D132A) (human) (UniProt Q14116)
[14] = molecular target: IL-18 polypeptide C166 (V11I, C38A, S55T, C76A, C127A) (human) (UniProt Q14116)
[15] = molecular target: IL-18 polypeptide of SEQ ID NO: 35 (Y01G, F02A, E06K, M51G, K53A, D54A, S55A, T63A) (human) (UniProt Q14116)
[16] = molecular target: IL-18 polypeptide of SEQ ID NO: 9 (E6K, C38A, K53A, C68A, D98C) (human) (UniProt Q14116)
[17] = molecular target: IL-18 polypeptide C165 (V11I, C38A, S55R, C76A, C127A) (human) (UniProt Q14116)
[18] = molecular target: IL-18 polypeptide C156 (V11I, C38A, N41A, K53A, C76A, C127A) (human) (UniProt Q14116)
[19] = molecular target: IL-18 polypeptide C168 (V11I, C38A, C76A, S105K, C127A) (human) (UniProt Q14116)
[20] = molecular target: IL-18 polypeptide C143 (V11I, C38A, K53A, C76A, C127A) (human) (UniProt Q14116)
[21] = molecular target: IL-18 polypeptide C148 (F2A, V11I, C38A, K53A, C76A, C127A) (human) (UniProt Q14116)
[22] = molecular target: IL-18 polypeptide C167 (V11I, C38A, C76A, S105I, C127A) (human) (UniProt Q14116)
[23] = molecular target: IL-18 polypeptide C164 (V11I, C38A, S55H, C76A, C127A) (human) (UniProt Q14116)
[24] = molecular target: IL-18 polypeptide C150 (V11I, T34A, C38A, K53A, C76A, C127A) (human) (UniProt Q14116)
[25] = molecular target: IL-18 polypeptide C154 (V11I, E31A, D37A, C38A, K53A, C76A, C127A) (human) (UniProt Q14116)
[26] = molecular target: IL-18 polypeptide of SEQ ID NO: 47 (C38S, C68S, C76S, C127S) (human) (UniProt Q14116)
[27] = molecular target: IL-18 polypeptide C162 (K8E, V11I, C38A, C76A, Q103R, C127A) (human) (UniProt Q14116)
[28] = molecular target: IL-18 polypeptide C152 (V11I, S36A, C38A, K53A, C76A, C127A) (human) (UniProt Q14116)
[29] = molecular target: IL-18 polypeptide C147 (V11I, C38A, K53A, D54A, C76A, C127A) (human) (UniProt Q14116)
[30] = molecular target: IL-18 polypeptide of SEQ ID NO: 48 (C38S, C68S, C76S, C127S, K70C) (human) (UniProt Q14116)
[31] = molecular target: IL-18 polypeptide of SEQ ID NO: 46 (E06K, K53A, S55A, M51G) (human) (UniProt Q14116)
[32] = molecular target: IL-18 polypeptide of SEQ ID NO: 38 (E06K) (human) (UniProt Q14116)
[33] = molecular target: IL-18 polypeptide C155 (V11I, C38A, D40A, K53A, C76A, C127A) (human) (UniProt Q14116)

- IC50 of inhibition by IL-18BP of IFNγ stimulation in NK92 cells [1]: 27.3 nM
- IC50 of inhibition by IL-18BP of IFNγ stimulation in NK92 cells [2]: > 703 nM
- IC50 of inhibition by IL-18BP of IFNγ stimulation in NK92 cells [3]: 7.52 nM
- IC50 of inhibition by IL-18BP of IFNγ stimulation in NK92 cells [4]: 62.4 nM
- IC50 of inhibition by IL-18BP of IFNγ stimulation in NK92 cells [5]: 1.07 nM
- IC50 of inhibition by IL-18BP of IFNγ stimulation in NK92 cells [6]: 284 nM
- IC50 of IL-18BP-mediated inhibition of IFNγ secretion by NK92 cells [7]: 0.781 nM
- IC50 of inhibition by IL-18BP of IFNγ stimulation in NK92 cells [7]: 1.47 nM
- IC50 of inhibition by IL-18BP of IFNγ stimulation in NK92 cells [8]: 3.98 nM
- IC50 of inhibition by IL-18BP of IFNγ stimulation in NK92 cells [9]: 396 nM
- IC50 of inhibition by IL-18BP of IFNγ stimulation in NK92 cells [10]: 27.8 nM
- IC50 of inhibition by IL-18BP of IFNγ stimulation in NK92 cells [11]: 2.22 nM
- IC50 of inhibition by IL-18BP of IFNγ stimulation in NK92 cells [12]: 47.1 nM
- IC50 of inhibition by IL-18BP of IFNγ stimulation in NK92 cells [13]: 6.08 nM
- IC50 of inhibition by IL-18BP of IFNγ stimulation in NK92 cells [14]: 0.44 nM
- IC50 of inhibition by IL-18BP of IFNγ stimulation in NK92 cells [15]: > 55 nM
- IC50 of inhibition by IL-18BP of IFNγ stimulation in NK92 cells [16]: 961 nM
- IC50 of inhibition by IL-18BP of IFNγ stimulation in NK92 cells [17]: 0.885 nM
- IC50 of inhibition by IL-18BP of IFNγ stimulation in NK92 cells [18]: 0.681 nM
- IC50 of inhibition by IL-18BP of IFNγ stimulation in NK92 cells [19]: 0.176 nM
- IC50 of inhibition by IL-18BP of IFNγ stimulation in NK92 cells [20]: 1.62 nM
- IC50 of inhibition by IL-18BP of IFNγ stimulation in NK92 cells [21]: 5.05 nM
- IC50 of inhibition by IL-18BP of IFNγ stimulation in NK92 cells [22]: 0.809 nM
- IC50 of inhibition by IL-18BP of IFNγ stimulation in NK92 cells [23]: 0.456 nM
- IC50 of inhibition by IL-18BP of IFNγ stimulation in NK92 cells [24]: 21.3 nM
- IC50 of inhibition by IL-18BP of IFNγ stimulation in NK92 cells [25]: 3.71 nM
- IC50 of inhibition by IL-18BP of IFNγ stimulation in NK92 cells [26]: 0.444 nM
- IC50 of inhibition by IL-18BP of IFNγ stimulation in NK92 cells [27]: 7.29 nM
- IC50 of inhibition by IL-18BP of IFNγ stimulation in NK92 cells [28]: 7.85 nM
- IC50 of inhibition by IL-18BP of IFNγ stimulation in NK92 cells [29]: 47.6 nM
- IC50 of inhibition by IL-18BP of IFNγ stimulation in NK92 cells [30]: 0.114 nM
- IC50 of inhibition by IL-18BP of IFNγ stimulation in NK92 cells [31]: 0.189 nM
- IC50 of inhibition by IL-18BP of IFNγ stimulation in NK92 cells [32]: 7.79 nM
- IC50 of inhibition by IL-18BP of IFNγ stimulation in NK92 cells [33]: 3.23 nM
Substance: Fc fused human IL-18 binding protein isoform a (IL-18BPa; R&D systems, Cat #119-BP) (from UniProt O95998 31-194) (Fc fusion)
